The record followed here is the supplement of paper PMC12042874.

Data set [1] can be described thus: amyloid nucleation score (Sup35N fusion, yeast selection) (log enrichment); library NNK1; higher = more nucleation; inactive = no reads after selection. The method in brief:
(§1)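 The nucleation score is the log enrichment of output over input reads, calculated with DiMSum and centred on the mode score of non-aggregating sequences. Sequences with under 100 input reads were excluded. Reads came from Illumina sequencing of plasmid inserts from psi-negative yeast expressing Sup35N fused to peptides of 20 random codons, induced 24 hours with 100 μM copper sulfate and grown 7 days at 30°C without adenine and uracil.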

A short description of data set [2]: amyloid nucleation score (Sup35N fusion, yeast selection) (log enrichment); library NNK2; higher = more nucleation; inactive = no reads after selection. The method in brief:
as §1

± gives the uncertainty stated by the source.

GWYFYG gave an amyloid nucleation score in data set [1] of 0.702 ± 0.32.

The substance GYSGGKLLVGGTYTRIV had an amyloid nucleation score in data set [1] of 0.243 ± 0.43. Still for that read-out and setting: to WCMGHNSYYVKEIVIDVLWL belongs “inactive”; to RKHIRYTLVREIPLKSFSQY, 0.043 ± 0.28.

Turning to AVSAFSTVKSSFGDGGIGFF, the amyloid nucleation score in data set [1] was -0.398 ± 0.34. MSNRISLQQLDRCQDDFMA had an amyloid nucleation score in data set [1] of 0.034 ± 0.38.

RRSQGAYLLNDGVRGIL: the amyloid nucleation score in data set [1] was -0.057 ± 0.28.

The substance ADFFESEQVHYKSELAKNHG came in with an amyloid nucleation score in data set [1] of 0.049 ± 0.69. Still for that read-out and setting: to REDKYHIVVT belongs -0.275 ± 0.28. The same measure, in the same setting: to TRWIRYTFRFS belongs 1.61 ± 0.13. Still for that read-out and setting: to LDVFPNYASRCTWAVDASFL belongs -0.703 ± 2.1; to IYGWVHTSMRMRVGTAVLPR, 0.375 ± 0.54; to VGFEGHS, -0.58 ± 0.6. For the substance HYSTEEGRVCGSVKQQKAWL, the amyloid nucleation score in data set [1] is -0.296 ± 0.52. As for QNVRSLVHSYLKGTNSSLVG, the amyloid nucleation score in data set [1] was -0.01 ± 0.74. Take FTSLYSNILHKSTCLQ: the amyloid nucleation score in data set [1] is 0.288 ± 0.9. On the same count and under the same terms, to SSYMLWFAIFVRNLNPLVFW belongs -0.871 ± 0.37. On the same count and under the same terms, for NCAFVAS the value was -0.019 ± 0.34.

In turn, YVSLNNRQKFLAARLPKLEG showed an amyloid nucleation score in data set [2] of -0.51 ± 0.64. Still for that read-out and setting: to DDSFML belongs -0.134 ± 1.1. Same read-out and setting: for RFIMSRYALEGAESTLMKHN the value was 3.53 ± 0.1; for FAKCHFSQSARYIY, “inactive”; for EDIGSGGKTRFLDRRWVFCN, “inactive”. Same read-out and setting: for LAVLGVVDNIV the value was 0.516 ± 0.4; for FHLRWRFSSSSNNITRRRCR, 0.115 ± 1; for LAVHYHILRERTALCLGDHQ, -0.127 ± 1.1. TDKIWSCHLGQTAWLSKSSG gave an amyloid nucleation score in data set [2] of 0.385 ± 0.33.

IWGCKELLDVRTAQGVDGM showed an amyloid nucleation score in data set [2] of 3.87 ± 0.078. Still for that read-out and setting: for SPKRFTCSGDCSR the value was -0.573 ± 0.78. The same measure, in the same setting: for HCAEHQPASGVLVTGYWDLG the value was 0.444 ± 0.54. On the same count and under the same terms, to NVHCILMSGVMGIQYRWKVL belongs 0.395 ± 0.51; to VKINSTDMSMVQNCNYLIWV, -0.531 ± 1.1.

NISMTTWW showed an amyloid nucleation score in data set [2] of 4.71 ± 0.11. The same measure, in the same setting: to ERKHTFHAVGHGLQESLVRF belongs -0.212 ± 0.45. The same measure, in the same setting: for WWDRVRLFRYRLCGSKSLMS the value was 0.429 ± 0.38; for YVNMAVNLTTDGQMTWNSRT, 6.65 ± 0.035. The substance SIFYLEGDHDLTTCTDLNTF registered an amyloid nucleation score in data set [2] of 3.13 ± 0.094. Same read-out and setting: to NIMSFFHLSLGVDFVHVSPG belongs 0.144 ± 0.19; to FYKDKETCLECWMIYENCRK, -0.29 ± 0.32; to AWDRDVNDENLVSIYMCRKL, -0.233 ± 0.32.

Substance RADSIFDTI returned an amyloid nucleation score in data set [2] of -0.721 ± 0.61. Same read-out and setting: for SFVCWITVCNFRVSQ the value was 3.21 ± 0.12; for NYRLQIINGRRSTSVRVQGA, 0.606 ± 0.36; for WGSGNGLVGLHYLASLFERN, 0.847 ± 0.58. Still for that read-out and setting: for RKIYV the value was -0.139 ± 0.55; for APLNLSFIHPTFIWLYCLLG, 4.27 ± 0.05; for RTVIQQVPAPLARAGVRWGW, 3.17 ± 0.097. On the same count and under the same terms, for DKICNYVVGGEVYFSMNHYW the value was 8.327 ± 0.047. As for FKILFLAHRLTGLFKSSTGF, the amyloid nucleation score result in data set [2] was “inactive”. On the same count and under the same terms, to DYTSVSMVIHVCKRL belongs 5.59 ± 0.097. On the same count and under the same terms, for RKQCNKFGVWDQI the value was 0.214 ± 0.5.

In data set [2], CLRGDNKISLDRSGGMTFGQ had an amyloid nucleation score of 1.79 ± 0.18.

Turning to IVHQGLLIRPIDGVGRLTLS, the amyloid nucleation score in data set [2] came out at 4.05 ± 0.1. Regarding LIADLQKFSYVSWAGCMTY, the amyloid nucleation score in data set [2] turned out to be 4.4 ± 0.085.

In turn, CRTRL yielded an amyloid nucleation score in data set [2] of 0.505 ± 0.39. The substance SMDRLRRDGYLGSVVCYNRS returned an amyloid nucleation score in data set [2] of -0.935 ± 0.54. In the case of NADQLLIGELQLTLGLWPIR, the amyloid nucleation score in data set [2] turned out to be 1.14 ± 0.16. The same measure, in the same setting: to FHRCSYLVT belongs 2.95 ± 0.09. With CQIVGRHIGVRMCDDRVYRA, in data set [2], the amyloid nucleation score was determined as 0.762 ± 0.6.

Take DFSTLAPLKLVMHI: the amyloid nucleation score in data set [2] is -0.267 ± 0.54. Same read-out and setting: for LGMCRGLRLIMMDWFGSDKM the value was 2.35 ± 0.075. WWSARYRGTLD showed an amyloid nucleation score in data set [2] of 1.57 ± 0.24. On the same count and under the same terms, to YVWIQTLYALWYFSLRFAGL belongs -0.413 ± 0.49; to DLVVYLSPVGGTGRFYEVGA, 3.92 ± 0.062; to IISGAFRCARNGY, 1.62 ± 0.3. Turning to TRGIVGFPD, in data set [2], the amyloid nucleation score turned out to be 3.93 ± 0.067. Still for that read-out and setting: to CLSLSLVMSVGVLKSISQYS belongs -0.017 ± 1; to YCRMYSRNVDGVWHTISKLD, 0.108 ± 0.42. GVCVI showed an amyloid nucleation score in data set [2] of 0.775 ± 0.4. Regarding GVRSNLSYNIFVTCAMRASG, the amyloid nucleation score entry in data set [2] was “inactive”. Consider IDSDSFHDRSTSRHLFNGLA, for which, in data set [2], the amyloid nucleation score entry is “inactive”. PSCDVFVKIRLHFAFVKNFI: in data set [2], the amyloid nucleation score entry is “inactive”.

VKCLGAFGDE: the amyloid nucleation score in data set [2] is -0.012 ± 1.1. Same read-out and setting: to NRCFEGFAVARFDAGRV belongs -0.378 ± 1. Still for that read-out and setting: to WSLLEF belongs “inactive”; to YALCLKALEFMVMGLPSSRM, -0.049 ± 0.76; to MCFFMAREEASRGAKGLAER, 1.66 ± 0.19. Same read-out and setting: to MVVGIAVYRCSFNRTDLFPS belongs 0.655 ± 0.2; to WGAEILAHVGPSHEYSR, -0.175 ± 0.49; to QTDMII, “inactive”. In data set [2], KRCYCIKGVCNLNGISPKVK displayed an amyloid nucleation score of -0.468 ± 0.36. On the same count and under the same terms, for PNRYYQLGTYFLNVQVRQFG the value was 4.18 ± 0.045; for VQMYCRSSAQPRVAILAMSG, 1.16 ± 0.12. On the same count and under the same terms, for IIFVVVASQKVHWFVRVDGD the value was -0.658 ± 1.

As for QMIFGYQHRAALDIMNGVPD, the amyloid nucleation score result in data set [2] was “inactive”.

The substance TFPMEFLPF returned an amyloid nucleation score in data set [2] of -1.12 ± 0.49. On the same count and under the same terms, to RDSFQCSY belongs -0.939 ± 0.54; to RVGFNNRNVVD, 0.266 ± 0.56; to SRIIYMPPPVCHESLGKRPV, -0.296 ± 0.63.

Turning to CHLFVFLGLPRQWVKSRPYA, the amyloid nucleation score in data set [2] came out at 0.18 ± 0.22. Same read-out and setting: to VFFGVSNVVSATYSYWLRIQ belongs -0.627 ± 0.76. The same measure, in the same setting: to SGFGCLFTMW belongs 1.63 ± 0.27.

For the substance DIGSMYEMLCRVVTIVLPRS, the amyloid nucleation score in data set [2] was -0.723 ± 1.1. Still for that read-out and setting: to QLTQYQSKTRTMCRKQERTV belongs 1.88 ± 0.43. On the same count and under the same terms, for CLWSTN the value was 0.801 ± 0.58. For VINSMY, in data set [2], the amyloid nucleation score came out at 1.11 ± 0.45. Still for that read-out and setting: for TVSSIKFVVYSGLRWYELVY the value was 2.27 ± 0.1.

Regarding FPNLFYFADYVLICNLMIKL, the amyloid nucleation score in data set [2] is 4.585 ± 0.029. As to SHNVGYCSVSCSCTWWHSCV, the amyloid nucleation score entry in data set [2] was “inactive”. Same read-out and setting: to CVFNTFMNDKIIGRLWPTDW belongs 2.91 ± 0.15. Same read-out and setting: for RGANNGMCYFMTRRKWLLMV the value was 0.813 ± 0.56; for IVWLMHSSSHRT, 5.79 ± 0.076; for QSPSIRTCTYYGTYRRLKKG, “inactive”. For the substance MNLWVMAFR, in data set [2], the amyloid nucleation score is 6.502 ± 0.065. Still for that read-out and setting: to KDLGA belongs 3.08 ± 0.13. On the same count and under the same terms, to YVLGEHRIRCGEDYV belongs 1.77 ± 0.31; to VHLPCGYLKFRGLMYWRREL, 0.479 ± 0.34. Consider TRLLIVDFNIFSIEIVHLMS, for which the amyloid nucleation score in data set [2] is 2.41 ± 0.071.

CIINNKIQVAVKNDYLDHRE returned an amyloid nucleation score in data set [2] of 4.69 ± 0.1. Still for that read-out and setting: to RLVPISKNRVGMNWSASLSL belongs 0.012 ± 0.15; to SLPDRKIKWESGGP, 0.646 ± 0.33. Same read-out and setting: for INCFSLLEPLEYFSRLCQQR the value was -0.276 ± 0.55; for WFFFFNGPAYVFNLNIVNFS, 7.035 ± 0.06; for SFSRYF, -1.58 ± 0.75.

In the case of VFILWFTVSATIKKESFGNN, the amyloid nucleation score in data set [2] was -2.34 ± 1.1. The same measure, in the same setting: for IPALN the value was -0.963 ± 0.55. Substance SGNHSLVLYDWDYVWYVTQY returned an amyloid nucleation score in data set [2] of -1.1 ± 0.45.

The substance SGIWFQQDMMN came in with an amyloid nucleation score in data set [2] of -0.258 ± 0.55. In turn, VYCVGNMSLGGLMDNCWYAG had an amyloid nucleation score in data set [2] of 4.41 ± 0.062.

As to NTAVSYFNHKSVAFFYFCDL, in data set [2], the amyloid nucleation score is 4.94 ± 0.064. As to MRSRNLLS, the amyloid nucleation score entry in data set [2] is “inactive”.

IGQRLCYCVCWRSSCGVVWQ came in with an amyloid nucleation score in data set [2] of 1.46 ± 0.36. The same measure, in the same setting: for NDMVRAISRKGIVSIHRRTR the value was 0.724 ± 0.45; for KHMNAYCNVTYQIDFRCIIS, “inactive”. Same read-out and setting: for TMMSLSGIVL the value was -0.376 ± 0.48.

As for SLIKKFMLCFVYQREAHLLS, in data set [2], the amyloid nucleation score stood at 0.402 ± 0.8.

On to RSSADAPVY, for which, in data set [2], the amyloid nucleation score was -0.864 ± 1.1.

For the substance KFWLCDEGYWWNVASGLSSV, in data set [2], the amyloid nucleation score was 0.845 ± 0.32. Same read-out and setting: to DAWFVINHHPIEYLSLRVWR belongs 0.98 ± 0.27. Still for that read-out and setting: for WTCVEVHAVYCFGSVDELVL the value was 8.556 ± 0.058.

Take YWIRIRIQCFQGSIEQDTER: in data set [2], the amyloid nucleation score is 4.96 ± 0.066.

Substance LAALR returned an amyloid nucleation score in data set [2] of 0.159 ± 0.3. Substance WLLKFSVGLNFFSEFNVLRC showed an amyloid nucleation score in data set [2] of -1.43 ± 0.75. HIGCIRWFSCGGSPLSMNRL gave an amyloid nucleation score in data set [2] of 1.24 ± 0.2.

Turning to CFHVITVNPGLQ, the amyloid nucleation score in data set [2] was determined as 1.37 ± 0.39. On the same count and under the same terms, to IFAGIHWNGQSAFLVFKCHI belongs “inactive”; to GLLGAVDRTVR, 0.238 ± 0.56. On the same count and under the same terms, to LWMCKTFYGAGLSPVVK belongs -0.038 ± 1.
